Earlier results, collected in PMC6953883, “Alterations of aqueous humor Aβ levels in Aβ-infused and transgenic mouse models of Alzheimer disease” (PLoS ONE, 2020).

Conditions: previous studies

In the case of “Aβ: amyloid-β peptide of cited efflux and retention studies; Shibata et al. used Aβ(1-40)”, the “half-time of Aβ efflux from CSF to blood” value is listed as 34.63 min.
